Reference: the supplement of paper PMC10126150
± gives the standard deviation of the averaged measurements.

System: ATP
Test: switch fluorescence ratio, 500 uM ATP over buffer (Cy3 cluster intensity, sum of 5 cycles each) (fold (ratio)); higher = stronger signal-on switching upon ATP binding; sequences stand for … in TCGTCGGCAGCGTCAGATGTGTATAAGAGACAGTTTTTTTTTTTTTTTTTTTTTTTTT…TC
Details: aptamer strand: ATP DNA aptamer (quencher-CACCTGGGGGAGTATTGCGGAGGAAGG + anchor), 100 nM annealed; ATP concentration: 500 uM
In short: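 The fluorescence ratio divides summed target-cycle Cy3 intensity by summed buffer-cycle Cy3 intensity for each cluster and is averaged per switch-domain sequence. Cy3-labelled switching-strand clusters on a modified Illumina MiSeq flow-cell were annealed to 100 nM quencher-labelled ATP aptamer, then imaged in selection buffer and again after 15 min with 500 uM ATP at 22 °C. Five such cycles were run, with NaOH stripping and re-annealing between them, and clusters outside 100-1000 RFU were excluded.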
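Further: ATP exposure 15 min at 22 °C before imaging.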

Sequence | switch fluorescence ratio
TTAATGGGAC | 1.012 ± 0.0033
ATTCATGGGG | 0.98 ± 0.019
GGGTGGCCTA | 1 ± 0.015
ATTCGCCTAG | 0.987 ± 0.012
TAAAAATAGG | 1 ± 0.022
TTAATCGTGT | 0.995 ± 0.037
TTGTGAGGGT | 0.981 ± 0.033
TGTTGGGGAT | 0.983 ± 0.029
TTGGTGCCCG | 1.01 ± 0.037
TTATAATTTT | 0.965 ± 0.044
TTTAAGCCCC | 0.9854 ± 0.0082
GGAGCAGCTA | 1.06 ± 0.028
GATAGTCATG | 0.985 ± 0.015
GATTTGCAGA | 1 ± 0.024
TCTCTTGGGA | 1.03 ± 0.024
TAATGAATTC | 1.003 ± 0.0081
CCGGAGGTCG | 0.958 ± 0.012
CATAGGTTAT | 0.993 ± 0.048
GGGCGGGATT | 1 ± 0.059
TAAATTTCGA | 1.04 ± 0.018
TTGTGATAGT | 1.0025 ± 0.00064
AAATTTTTC | 1 ± 0.021
CGTATGGGAA | 1.026 ± 0.0082

Sequence | switch fluorescence ratio
CAAGTTATGT | 1 ± 0.044
TGTTTAGGAG | 1.014 ± 0.0078
GGATTGTTTT | 0.996 ± 0.023
TTCTTACGTC | 1 ± 0.011
TTAATTGAGG | 0.993 ± 0.044
ACCCCATGCG | 1.22 ± 0.037
GCTGGTTTTG | 0.9716 ± 0.004
AATGCCCGGC | 1.02 ± 0.11
AGGAGCAGGG | 1 ± 0.05
CTGATGGTAG | 1.01 ± 0.015
GGTCTGGGGG | 0.955 ± 0.012
TTTGTGTATG | 0.9701 ± 0.0032
TTGGCTGGTG | 1.03 ± 0.04
ACAGATGGAA | 1.005 ± 0.0068
GAACTTTCTG | 1.006 ± 0.0063
AAAGGCCAGT | 1.03 ± 0.018
AAATGCAAAG | 0.991 ± 0.016
TTTATGGTGG | 1.01 ± 0.013
TAAAACCAGG | 1.21 ± 0.082
GGACCCGGTT | 1.04 ± 0.029
AAGTTTGTAG | 1 ± 0.03
TGGATGAAGT | 1 ± 0.047
ATTAGTTGGC | 0.993 ± 0.027

Sequence | switch fluorescence ratio
GTCGGTAAGG | 0.982 ± 0.021
GTTTGAGGAG | 0.986 ± 0.05
CGAAGAAAGG | 1.16 ± 0.013
AATAGGAATT | 0.9708 ± 0.0059
ACGTATCGGC | 1.056 ± 0.0075
GATGATTTGT | 1.02 ± 0.058
GCGGGGTATC | 1.09 ± 0.18
ATGCAGATTA | 1.023 ± 0.0051
TTCGGGCTGT | 0.996 ± 0.011
TCGTTTCATA | 0.9784 ± 0.0036
CTGTAACGAG | 1.008 ± 0.0075
AAGGGGATCG | 1.03 ± 0.027
CCAGGCATGT | 1.05 ± 0.012
ATTAAGTTTG | 1 ± 0.031
TTAGGTTTCT | 1 ± 0.011
GAAGGTTATT | 0.9939 ± 0.0047
TTTATATGTC | 1.12 ± 0.23
ACGCGCGCGC | 0.987 ± 0.036
TTGTAAGTGG | 0.97 ± 0.0078
TTCGGTAGCG | 0.996 ± 0.046
CCAAGGCAGG | 1.35 ± 0.069
GCTATGAAAG | 0.995 ± 0.013
CATTTGGGGT | 0.989 ± 0.017

Sequence | switch fluorescence ratio
ACCAAACCGG | 1.039 ± 0.0079
GAAACCTATT | 1.0142 ± 7.7e-05
TCCAGTTGTA | 0.99 ± 0.019
CTGGTATGTG | 0.997 ± 0.029
TAAAGGCAAG | 1.02 ± 0.018
GGGATAGATA | 1.03 ± 0.022
CTCTGTAGGC | 1.87 ± 0.31
GTTTTGAGGG | 1.01 ± 0.016
CCGCGGCGAA | 1.47 ± 0.22
GATTGTTGGA | 1.02 ± 0.037
AATAAGTCCT | 1.03 ± 0.038
TGAGGGTAAG | 1.13 ± 0.21
GGTGTGCATC | 1 ± 0.018
GCCTGGTTGG | 0.995 ± 0.015
TGTTACCAGC | 1.01 ± 0.014
GGGGGGTCAG | 1.01 ± 0.025
CGGATAATTT | 1.01 ± 0.047
TCGGTTTTGT | 0.983 ± 0.026
TTGAGGGTGA | 0.988 ± 0.016
GTGGGTGGTC | 1.02 ± 0.013
TTTTCTAAGG | 0.989 ± 0.085
TATTAATATT | 1.003 ± 0.0059
GGAGGAGGGG | 1 ± 0.023

Sequence | switch fluorescence ratio
GAAGCACCGG | 1.08 ± 0.026
ACTTACAGGG | 1.171 ± 0.0058
AAGGGGAGGG | 1 ± 0.013
TTATGAGGGT | 0.982 ± 0.015
GGAATCCTTT | 0.998 ± 0.0088
AGGGCGGTAT | 1.0286 ± 0.00059
TCGGGGTCTG | 0.9872 ± 0.0066
TTATGGTGCT | 0.945 ± 0.051
TGGCGGGGTA | 1.02 ± 0.034
GAAAGGGTCC | 1.001 ± 0.01
TTAGGTTTAA | 1.02 ± 0.021
AGTTGGTAAT | 0.963 ± 0.06
AGTGCGTCTT | 1.01 ± 0.021
TGAACCGCGA | 2.96 ± 0.18
GGTGTTGTTG | 1.017 ± 0.0023
TAGGGTTGTG | 0.9838 ± 0.0033
TGAGGGGATA | 1.01 ± 0.025
AAAAAGGGGA | 1 ± 0.032
AGTGACTTTT | 0.9961 ± 0.0089
TGGGAGCATA | 1.05 ± 0.022
TTTTGTCTGT | 1.01 ± 0.016
GTTACAAGGG | 0.9883 ± 0.0092
CGTTTAGACG | 1.09 ± 0.095

Sequence | switch fluorescence ratio
CGGTTGTGGG | 0.996 ± 0.018
AGATTATAGC | 1.02 ± 0.045
TGCGCCTGGG | 1.03 ± 0.013
AGGCAATGTT | 1.05 ± 0.013
GGCTGTGGGT | 0.987 ± 0.052
TTTATCCGGG | 0.99 ± 0.05
CTAGGGGGCG | 0.992 ± 0.058
TAAAATGTTG | 1.03 ± 0.033
AAAGGAAAGG | 0.992 ± 0.014
GCTTTTTTGG | 0.994 ± 0.025
TTTTCCCTGG | 1.46 ± 0.62
ATGTAGAAGG | 1 ± 0.029
TACTGGGGAC | 1.03 ± 0.035
TAAAAACCAT | 1.01 ± 0.046
ATGGGAACGG | 0.994 ± 0.017
GAGGGGGGAT | 1.01 ± 0.033
GCTCCTGAGG | 1.073 ± 0.0081
TTCAATGGCT | 0.983 ± 0.046
AATCGCGGCC | 1.032 ± 0.0085
CATGCCGGGA | 1.22 ± 0.38
TTTCGTTTTT | 0.991 ± 0.038
CCCAGAGTTC | 1.06 ± 0.023
TATAAGACAT | 1.03 ± 0.038

Sequence | switch fluorescence ratio
GTCCGGGGTT | 0.994 ± 0.021
GAGTGGACTC | 0.999 ± 0.029
TGCTTGAGGG | 1.004 ± 0.0097
CAGAGTCCTC | 1.01 ± 0.027
ATTTCAAGTT | 0.966 ± 0.011
AGATTCCGGT | 0.976 ± 0.016
GAGGGCGGGA | 1.01 ± 0.047
TGGTCGCATT | 1.01 ± 0.034
TCATGTGACT | 1.02 ± 0.053
GGTTGAGGG | 0.997 ± 0.001
AATGCGGGGG | 1 ± 0.025
TATTTTGAAC | 1.0289 ± 4.6e-05
AATATTTGAG | 0.998 ± 0.02
TTTGGAGATG | 1.02 ± 0.023
ACCGGGGTGT | 1.17 ± 0.14
GCCTGTATAG | 0.9958 ± 0.0052
TATGAGAGGC | 1.04 ± 0.035
CGCATAGGCT | 1.11 ± 0.18
TGGGTTAGAG | 0.9878 ± 0.0052
